This is an account of results in patent publication US20100092467A1 (US Dept. of Health and Human Services, published 2010).

The target in assay [1] is CD36, murine, endogenous on cells (mouse) (UniProt Q08857). The assay can be described thus: cell-based or functional assay.
Assay [2] deals with CD47, human, endogenous on cells (human, UniProt Q08722 19-323). The assay can be described thus: cell-based or functional assay.

Ends that are not written are not given here. * marks the point of attachment. Biotin = O=C1N[C@H]2[C@H](CS[C@H]2CCCCC(=O)*)N1

Sequence of CD36, murine, endogenous on cells (mouse) (Q08857 whole entry): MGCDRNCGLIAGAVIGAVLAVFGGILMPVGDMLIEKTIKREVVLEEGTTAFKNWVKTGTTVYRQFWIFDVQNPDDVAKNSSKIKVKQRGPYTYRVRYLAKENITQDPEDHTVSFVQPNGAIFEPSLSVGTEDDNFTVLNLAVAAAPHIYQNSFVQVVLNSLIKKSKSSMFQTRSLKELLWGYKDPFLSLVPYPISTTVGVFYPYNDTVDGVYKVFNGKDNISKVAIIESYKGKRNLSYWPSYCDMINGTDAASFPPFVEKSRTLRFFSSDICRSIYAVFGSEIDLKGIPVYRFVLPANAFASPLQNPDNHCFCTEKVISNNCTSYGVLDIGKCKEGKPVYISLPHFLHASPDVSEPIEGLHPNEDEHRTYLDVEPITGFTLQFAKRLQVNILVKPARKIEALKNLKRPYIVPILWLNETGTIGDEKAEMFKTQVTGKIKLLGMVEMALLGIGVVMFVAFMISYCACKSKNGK

With “Thrombospondin-1 (TSP1), prepared from human platelets (from UniProt P07996 19-1170) (ligand)”, in assay [1], the NO-stimulated adhesion of MASMC on type I collagen amounted to 22 nM.
On to “E3CaG1, recombinant C-terminal regions of TSP1 (from UniProt P07996 646-1170) (ligand)”, for which the NO-driven HASMC adhesion to collagen in assay [2] was over 0.4 nM.
In the case of IGWKDFAAYR [peptide 37299], in assay [2], the “cGMP signaling IC50**” value is over 10000 nM.
For the molecule IGYKDFTAYR [peptide 37417 (IGYKDFTAYR)], in assay [2], the “cGMP signaling IC50**” value was about 100 nM.
Regarding IGWADFTAYR [peptide 37413], the “cGMP signaling IC50**” value in assay [2] is over 10000 nM.
Regarding Ac-WKDFTAYR [peptide 37300 (Ac-WKDFTAYR)], the “cGMP signaling IC50**” value in assay [2] was about 1000 nM.
In the case of IGWKDYTAYR [peptide 37298 (IGWKDYTAYR)], the “cGMP signaling IC50**” value in assay [2] was about 100 nM.
IGWHDFTAYR [peptide 37414 (IGWHDFTAYR)]: in assay [2], the “cGMP signaling IC50**” value was over 10000 nM.
IGWKEFTAYR [peptide 37415 (IGWKEFTAYR)]: the “cGMP signaling IC50**” value in assay [2] was found to be 1000 nM.
Consider IGWKDFTAAR [peptide 37555 (IGWKDFTAAR)], for which the “cGMP signaling IC50**” value in assay [2] was about 10000 nM.
Same read-out and setting: with IGWKNFTAYR [peptide 37297 (IGWKNFTAYR)] the figure was over 10000 nM; with AGWKDFTAYR [peptide 37416 (AGWKDFTAYR)], about 1000 nM; with Biotin-IGWKDFTAYR [peptide C6d (biotin-IGWKDFTAYR)], about 100 nM.
On the same count and under the same terms, in the case of HIGWKDFTAYRWRLS [peptide C6b (HIGWKDFTAYRWRLS)] it was about 100 nM.
